Article PMC7113306

Molecular target: T1, ALK2-Fc, Q04771
T1 chain: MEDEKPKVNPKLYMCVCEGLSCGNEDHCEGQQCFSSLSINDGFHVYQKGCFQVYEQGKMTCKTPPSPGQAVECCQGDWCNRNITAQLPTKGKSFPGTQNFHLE
Assay: SPR
Details: ligand; chains chain; remark: other sources report otherwise

B1: BMP9 GF-domain (bone morphogenetic protein 9 growth factor domain), Q9UK05 320-429 (protein)
chain: SAGAGSHCQKTSLRVNFEDIGWDSWIIAPKEYEAYECKGGCFFPLADDVTPTKHAIVQTLVHLKFPTKVGKACCVPTKLSPISVLYKDDMGVPTLKYHYEGMSVAECGCR
Kd: 83 nM
